The target in data set [1] is T1, ZLD DBD (MBP-ZLD1117-1487) (UniProt Q9VWC6 1117-1487).
T1 sequence: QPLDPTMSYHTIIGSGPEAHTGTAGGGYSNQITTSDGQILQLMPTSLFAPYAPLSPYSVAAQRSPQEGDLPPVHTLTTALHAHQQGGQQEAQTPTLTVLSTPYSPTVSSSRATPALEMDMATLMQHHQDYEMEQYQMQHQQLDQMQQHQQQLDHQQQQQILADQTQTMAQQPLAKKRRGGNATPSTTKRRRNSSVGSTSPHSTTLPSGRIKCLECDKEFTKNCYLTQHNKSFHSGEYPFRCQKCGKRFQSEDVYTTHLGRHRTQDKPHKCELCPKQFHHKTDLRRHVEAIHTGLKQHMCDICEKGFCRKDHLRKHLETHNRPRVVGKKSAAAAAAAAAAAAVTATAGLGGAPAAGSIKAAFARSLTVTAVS
As to the kind of experiment: competition.

The target in data set [2] is T2, ZLD full-length (rZLD) (UniProt Q9VWC6 1-1596). In words: competition.
T2 sequence (Q9VWC6 whole entry): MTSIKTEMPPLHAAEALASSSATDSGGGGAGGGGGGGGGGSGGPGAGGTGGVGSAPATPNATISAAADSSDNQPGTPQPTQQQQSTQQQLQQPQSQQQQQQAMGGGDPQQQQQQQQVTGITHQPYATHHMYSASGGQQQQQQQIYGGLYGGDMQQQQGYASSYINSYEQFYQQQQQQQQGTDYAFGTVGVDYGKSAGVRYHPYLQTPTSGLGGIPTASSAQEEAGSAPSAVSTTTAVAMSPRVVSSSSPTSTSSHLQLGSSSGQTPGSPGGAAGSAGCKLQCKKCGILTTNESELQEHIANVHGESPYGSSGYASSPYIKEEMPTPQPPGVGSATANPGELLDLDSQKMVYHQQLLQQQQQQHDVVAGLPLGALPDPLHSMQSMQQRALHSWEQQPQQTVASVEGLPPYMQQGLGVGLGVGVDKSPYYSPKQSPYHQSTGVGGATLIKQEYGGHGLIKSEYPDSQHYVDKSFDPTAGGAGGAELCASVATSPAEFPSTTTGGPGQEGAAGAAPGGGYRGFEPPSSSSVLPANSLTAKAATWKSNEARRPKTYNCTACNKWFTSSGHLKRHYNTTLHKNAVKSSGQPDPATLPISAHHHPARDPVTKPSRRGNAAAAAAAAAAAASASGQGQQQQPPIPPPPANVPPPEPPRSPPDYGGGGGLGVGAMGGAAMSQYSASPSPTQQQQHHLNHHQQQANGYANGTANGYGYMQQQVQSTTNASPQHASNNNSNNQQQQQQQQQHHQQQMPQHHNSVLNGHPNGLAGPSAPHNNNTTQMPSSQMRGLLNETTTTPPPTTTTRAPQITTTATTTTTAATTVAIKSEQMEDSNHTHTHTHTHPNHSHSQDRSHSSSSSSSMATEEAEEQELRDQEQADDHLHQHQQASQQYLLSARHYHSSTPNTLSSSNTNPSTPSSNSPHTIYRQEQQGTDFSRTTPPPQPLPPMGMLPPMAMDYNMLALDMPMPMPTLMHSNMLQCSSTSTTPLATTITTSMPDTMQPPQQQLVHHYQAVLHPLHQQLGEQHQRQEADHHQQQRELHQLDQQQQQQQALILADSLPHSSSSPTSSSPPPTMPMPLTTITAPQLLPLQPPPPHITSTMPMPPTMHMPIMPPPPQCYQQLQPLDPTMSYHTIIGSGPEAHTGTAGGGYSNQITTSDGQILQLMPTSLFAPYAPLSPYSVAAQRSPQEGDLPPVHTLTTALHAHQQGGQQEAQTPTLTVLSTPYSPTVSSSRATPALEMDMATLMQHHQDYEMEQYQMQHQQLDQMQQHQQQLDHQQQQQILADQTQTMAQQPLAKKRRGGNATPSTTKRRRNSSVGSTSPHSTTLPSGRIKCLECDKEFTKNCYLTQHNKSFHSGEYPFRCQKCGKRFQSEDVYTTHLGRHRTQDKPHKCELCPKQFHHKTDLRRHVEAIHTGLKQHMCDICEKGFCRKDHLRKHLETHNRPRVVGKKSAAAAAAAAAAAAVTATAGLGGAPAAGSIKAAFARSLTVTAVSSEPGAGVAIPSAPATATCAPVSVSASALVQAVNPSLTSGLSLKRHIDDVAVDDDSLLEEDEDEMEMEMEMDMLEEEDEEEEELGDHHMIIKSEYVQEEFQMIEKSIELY
The target in data set [3] is T2, ZLD full-length (rZLD). In words: competition. The source holds these as a separate data set.
In data set [4] the target is T2, ZLD full-length (rZLD). In words: EMSA. On the technique in general: A gel shift assay detects complexes by their altered migration in electrophoresis.

B1: scute wild-type (specific competitor) (dsDNA)
DNA 1: GAGAGAGACTACCTGTGGCTCACT
DNA 2: AGTGAGCCACAGGTAGTCTCTCTC
For the molecule B1, the binding result in data set [1] and in data set [2] was “binds” in each case.

B2: scute mutant (nonspecific competitor) (dsDNA)
DNA 1: GAGAGAGAGTAGTTCTGGCTCACT
DNA 2: AGTGAGCCAGAACTACTCTCTCTC
Turning to B2, the binding result in data set [3] is reported as “no binding”.

B3: bnk DNA (dsDNA)
DNA 1: TCCTTTTTTACTTTCATAGCTTAGGTAGTGATCTCAGGTAGTTTCCCGGAATTAAGTTAGGCTGGGTATCGCCTATCGGGAGCGGCTACCTGAACTTTTGGCACCAGCTGTCGGGGGTGAAAACTGGACCAGGTAGTCTTTAGAAGTGCACCTATATAAG
DNA 2: CTTATATAGGTGCACTTCTAAAGACTACCTGGTCCAGTTTTCACCCCCGACAGCTGGTGCCAAAAGTTCAGGTAGCCGCTCCCGATAGGCGATACCCAGCCTAACTTAATTCCGGGAAACTACCTGAGATCACTACCTAAGCTATGAAAGTAAAAAAGGA
Turning to B3, the binding result in data set [4] is “binds”.

These data come from publication PMC6544384.
